Values quoted from earlier work, collected in article PMC3086721.

Target: ubiquitin (Homo sapiens) (UniProt P0CG47)

E2-25K UBA, sequence (P61086 157-200): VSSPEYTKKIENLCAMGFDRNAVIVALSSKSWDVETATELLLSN

Kd: 400 µM
Substance: E2-25K UBA (from UniProt P61086)
